Test results from PMC6377231, “Structure of a bacterial ATP synthase” (eLife, 2019).

Tests used:
Assay in all cases: cryo-EM structure; intact Bacillus PS3 ATP synthase in GDN, three rotational states at 3.0, 3.0 and 3.2 Å; focused refinement of the membrane-embedded region at 3.3 Å
[1] = biological target: the molecule itself
[2] = biological target: T1, Bacillus PS3 ATP synthase subunit α (Bacillus PS3, UniProt P09219 1-502); settings: both partners purified
T1 construct: ATP synthase subunit alpha of Bacillus PS3, expressed from plasmid pTR-ASDS (Suzuki et al., 2002); Three copies stand in the complex (α3β3γδε ab2c10); Residues in the model are in Supplementary file 1; also called αDP; source: E. coli strain DK8, plasmid pTR-ASDS; purified as part of the intact ATP synthase (GDN, HisTrap, Superose 6)
T1 sequence (P09219 whole entry): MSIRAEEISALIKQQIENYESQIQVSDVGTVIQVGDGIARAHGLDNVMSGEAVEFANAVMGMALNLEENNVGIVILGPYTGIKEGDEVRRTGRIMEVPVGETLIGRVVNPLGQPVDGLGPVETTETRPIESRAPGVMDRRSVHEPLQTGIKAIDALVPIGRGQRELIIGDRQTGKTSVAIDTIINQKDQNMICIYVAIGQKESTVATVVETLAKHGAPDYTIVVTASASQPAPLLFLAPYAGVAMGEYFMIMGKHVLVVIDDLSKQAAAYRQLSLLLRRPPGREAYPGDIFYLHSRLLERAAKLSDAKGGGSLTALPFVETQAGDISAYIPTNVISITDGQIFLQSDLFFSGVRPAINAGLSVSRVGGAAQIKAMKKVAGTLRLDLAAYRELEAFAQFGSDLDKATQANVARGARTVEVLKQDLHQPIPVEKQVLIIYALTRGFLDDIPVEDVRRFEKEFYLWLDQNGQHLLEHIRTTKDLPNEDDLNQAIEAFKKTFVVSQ

[3] = biological target: T2, Bacillus PS3 ATP synthase subunit γ (Bacillus PS3, UniProt P09222 5-286); settings: both partners purified
T2 construct: ATP synthase subunit gamma of Bacillus PS3, expressed from plasmid pTR-ASDS (Suzuki et al., 2002); source: E. coli strain DK8, plasmid pTR-ASDS; purified as part of the intact ATP synthase (GDN, HisTrap, Superose 6)
T2 sequence (P09222 5-286): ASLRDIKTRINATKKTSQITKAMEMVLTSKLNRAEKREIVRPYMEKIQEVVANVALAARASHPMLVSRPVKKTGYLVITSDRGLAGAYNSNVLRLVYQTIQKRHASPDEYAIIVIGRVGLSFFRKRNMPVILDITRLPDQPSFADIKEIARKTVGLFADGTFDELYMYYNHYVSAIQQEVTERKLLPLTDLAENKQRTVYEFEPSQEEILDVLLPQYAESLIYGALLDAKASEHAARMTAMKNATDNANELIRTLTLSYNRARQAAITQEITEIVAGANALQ

| Binder | stoichiometry N [1] | binding result [2] | binding result [3] |
| --- | --- | --- | --- |
| Bacillus PS3 ATP synthase subunit c (natural protein, ATP synthase subunit c of Bacillus PS3, expressed from plasmid pTR-ASDS (Suzuki et al., 2002); Forms the ring of 10 c-subunits in the FO region; also called c-ring; c10-ring; source: E. coli strain DK8, plasmid pTR-ASDS; purified as part of the intact ATP synthase (GDN, HisTrap, Superose 6); copies: 10) MSLGVLAAAIAVGLGALGAGIGNGLIVSRTIEGIARQPELRPVLQTTMFIGVALVEALPIIGVVFSFIYLGR | 10 |  |  |
| Bacillus PS3 ATP synthase subunit ε (natural protein, UniProt P07678 1-132, looked up, ATP synthase subunit epsilon of Bacillus PS3, expressed from plasmid pTR-ASDS (Suzuki et al., 2002); source: E. coli strain DK8, plasmid pTR-ASDS; purified as part of the intact ATP synthase (GDN, HisTrap, Superose 6)) MKTIHVSVVTPDGPVYEDDVEMVSVKAKSGELGILPGHIPLVAPLEISAARLKKGGKTQYIAVSGGFLEVRPDNVTILAQAAERAEDIDVLRAKARKSGRTPLQSQQDDIDFKRAELALKRAMNRLSVAEMK |  | binds | binds |
